Here are results for two substances from PMC2118261.

Assay [1] has as its target human CD1d loaded with α-galactosylceramide, biotinylated (human) (UniProt P15813). Nature of the assay: SPR.
Assay [2] has as its target mouse CD1d loaded with α-galactosylceramide, biotinylated (for SPR) (mouse) (UniProt P11609). Briefly: SPR.

Usually Kd stands for the constant that tells how readily two partners part at equilibrium.

Sequence of UniProt P11609 (P11609 22-336): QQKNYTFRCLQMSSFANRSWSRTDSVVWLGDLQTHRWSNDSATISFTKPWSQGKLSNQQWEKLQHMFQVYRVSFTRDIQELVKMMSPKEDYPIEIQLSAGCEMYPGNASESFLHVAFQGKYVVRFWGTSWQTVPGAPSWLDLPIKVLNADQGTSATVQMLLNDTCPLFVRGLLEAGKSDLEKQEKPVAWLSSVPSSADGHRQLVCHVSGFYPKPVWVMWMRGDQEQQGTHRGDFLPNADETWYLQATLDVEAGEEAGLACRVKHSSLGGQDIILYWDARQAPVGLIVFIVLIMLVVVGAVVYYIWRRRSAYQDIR
Sequence of UniProt P15813 (P15813 20-335): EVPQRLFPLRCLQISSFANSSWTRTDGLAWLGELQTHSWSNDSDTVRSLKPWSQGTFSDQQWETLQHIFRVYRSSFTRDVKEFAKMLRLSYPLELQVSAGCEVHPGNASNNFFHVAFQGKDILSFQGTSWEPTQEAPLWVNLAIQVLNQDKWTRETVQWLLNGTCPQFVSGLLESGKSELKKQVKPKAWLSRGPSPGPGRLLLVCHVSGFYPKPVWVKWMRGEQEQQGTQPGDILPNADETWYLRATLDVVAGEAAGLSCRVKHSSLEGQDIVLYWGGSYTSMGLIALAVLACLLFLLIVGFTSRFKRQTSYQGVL

For “NKT15α-chain/NKT15 β-chain engrafted with the LC13 CDR3β-loop (TCR)”, the fold lower affinity than NKT15 in assay [1] and in assay [2] was 5 to 10 fold throughout.
On to “NKT15 TCR (human semi-invariant NKT cell αβ T cell receptor, soluble extracellular domains)”, for which the values for the dissociation constant (Kd) in assay [1] and in assay [2] were 10 µM and 20 µM, respectively.
